Results from patent publication US20240026019A1 (Innovent, published 2024).

Tests used:
[1] = biological target: T1, hTNFR2 protein (coated on the microplate in the blocking ELISA) (human, UniProt P20333 23-257); assay: blocking ELISA: hTNFR2 coated on the plate, binding of biotinylated TNFα blocked by the antibody, Avidin-HRP
T1 construct: The construct coated in the ELISA is not described (it may or may not be the immunogen, Sino biological 10417-H03H)
T1 sequence (looked up): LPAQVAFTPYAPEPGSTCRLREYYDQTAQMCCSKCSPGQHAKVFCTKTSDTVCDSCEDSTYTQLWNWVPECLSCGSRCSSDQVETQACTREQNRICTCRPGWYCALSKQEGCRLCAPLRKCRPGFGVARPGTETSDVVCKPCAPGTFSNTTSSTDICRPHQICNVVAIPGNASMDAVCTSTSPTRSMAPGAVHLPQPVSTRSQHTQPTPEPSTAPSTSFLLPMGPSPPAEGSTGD
Description: The ability of the hybridoma antibodies 3C4, 69B1, and 72G8 and the control antibody OPI to block the binding of human TNFα to hTNFR2 was assayed by ELISA.
The hTNFR2 protein was resuspended and dissolved to a concentration of 2 μg/mL with PBS, and a microplate was coated with the protein and incubated overnight. The plate was blocked with 5% BSA for 1 h, and a biotinylated antigen (Recombinant Biotinylated TNFα protein (ACRO)) was diluted to 3 μg/mL and added to the plate at 20 μL/well. The antibodies prepared as described above (3C4, 69B1, and 72G8) were each diluted in a gradient starting from the maximum concentration of 300 nM for a total of 8 or 12 dilution gradients. The diluted antibodies were added at 200 μL/well and incubated in PBS on ice for 30 min. The antigen-antibody mixture was incubated in a microplate for 90 min and washed three times with PBS, and the supernatant was discarded. 100 μL of Avidin-HRP (Invitrogen) diluted at a 1:5000 ratio was added to each well, incubated at room temperature for 30 min, and washed six times with PBS. A TMB chromogenic solution (solarbio) was added to the plate at 100 μL/well for color development for 1 min, and the reaction was stopped by adding a stop buffer (solarbio) at 100 μL/well. The plate was read on a microplate reader at OD₄₅₀ and OD₆₂₀.

[2] = biological target: T2, TNFR2 on human K562 chronic myeloid leukemia cells and on primary human Treg cells (human, UniProt P20333 23-461); assay: flow cytometry on primary human Treg cells, MFI(FL2); unit taken from the axis Conc log(nM)
T2 construct: whole, on cells; also called K562 cells
T2 sequence (looked up): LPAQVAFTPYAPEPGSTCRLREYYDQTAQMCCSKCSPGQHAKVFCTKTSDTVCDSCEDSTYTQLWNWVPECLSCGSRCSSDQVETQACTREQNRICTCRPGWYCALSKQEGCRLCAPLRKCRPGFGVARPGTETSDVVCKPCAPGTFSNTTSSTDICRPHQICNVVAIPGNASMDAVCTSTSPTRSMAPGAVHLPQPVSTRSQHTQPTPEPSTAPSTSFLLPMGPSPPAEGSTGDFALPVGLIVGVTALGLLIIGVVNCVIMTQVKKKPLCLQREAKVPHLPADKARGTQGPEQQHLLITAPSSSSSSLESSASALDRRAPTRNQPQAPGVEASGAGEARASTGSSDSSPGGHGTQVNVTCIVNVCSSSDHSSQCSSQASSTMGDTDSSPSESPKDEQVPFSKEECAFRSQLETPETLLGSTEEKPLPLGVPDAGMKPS
Description: Tregs were prepared as follows: Human PBMC cells ([…], PB005F) were thawed, CD4⁺ CD25⁺ CD127^low cells were sorted by flow cytometry, and Treg cells were isolated. According to CD4⁺:anti-CD3/CD28 Beads=1:1, Dynabeads Human T-Activator CD3/CD28 (Gibco, 11131D) was added, followed by 10 ng/mL recombinant IL2, and the cells were stimulated for 7 days.
(§1) Assay steps: The mixture was centrifuged at 400 g for 5 min, and the cell medium was removed. K562 or Treg cells were resuspended in PBS. After counting, the cells were adjusted to a density of 2×10⁶/mL, and the cell suspension was added to a U-bottom 96-well plate at 100 μL/well. The test antibody was added, subjected to a three-fold gradient dilution, and left to stand on ice for 30 min. The mixture was centrifuged at 300 g for 5 min, and the supernatant was removed. The cells were washed once with PBS. The mixture was centrifuged at 300 g for 5 min, and PBS was removed. 100 μL of PE-anti-human Fc antibody (SOUTHERN BIOTECH, 2040-09) diluted at a ratio of 1:200 was added to each well. The mixture was incubated on ice for 30 min in the dark. The mixture was centrifuged at 400 g for 5 min, and the supernatant was removed. The cells were washed twice with PBS. The cells were resuspended in 100 μL of PBS and assayed by using a flow cytometer (BD, ACCURIC6 plus).

[3] = biological target: T2, TNFR2 on human K562 chronic myeloid …; assay: flow cytometry on human K562 CML cells, MFI(FL2); unit taken from the axis Conc log(nM)
Description: as §1

[4] = biological target: T3, human TNFR2 overexpressed on CHO-S cells (CHOS-hTNFR2) (human, UniProt P20333 23-461); assay: flow cytometry on CHO-S cells overexpressing human TNFR2 (positive control beside the hybridoma antibodies), MFI
T3 construct: also called hTNFR2 CHO-S; human TNFR2 molecule overexpressed on CHO-S cells
T3 sequence: T2 sequence (looked up)
Description: In the study, the binding of the hybridoma antibodies (3C4, 69B1, and 72G8) of the present invention, after being diluted in a gradient, to a stable CHO-S cell strain overexpressing human TNFR2 on the surface was assayed by using a flow cytometer.
CHOS-hTNFR2 cells or CHOS-cTNFR2 cells were counted and diluted to 2×10⁶ cells/mL, and added to a U-bottom 96-well plate at 100 μL/well. The mixture was centrifuged at 300 g for 5 min, and the cell medium was removed. The dilutions of the samples (the hybridoma antibodies 3C4, 69B1, and 72G8 and the positive control antibody OPI) (the antibodies were subjected to a two-fold serial dilution in PBS from the maximum antibody concentration of 300 nM) were added to the U-plate, and the cells were resuspended at 100 μL/well and left to stand on ice for 30 min. The suspension was centrifuged at 400 g for 5 min, and the supernatant was removed. The cells were washed twice with PBS. The mixture was centrifuged at 300 g for 5 min, and PBS was removed. […] The mixture was centrifuged at 400 g for 5 min, and the supernatant was removed. The cells were washed 3 times with PBS. The cells were resuspended in 200 μL of 1×PBS and assayed by FACS.

IC50 (read off the curve) [1]: ~6 nM | EC50 [2]: 0.0738 nM | EC50 [3]: 0.0916 nM | EC50 (read off the curve) [4]: ~2 nM
B1: positive control antibody OPI (humanized antibody SBT-002e in WO 2017083525) (antibody, V domains shown)
VH: QVTLKESGPALVKPTQTLTLTCTFSGFSLSTSGMGVGWIRQPPGKALEWLAHIWWDDDKFYNPSLKSRLTISKDTSKNQVVLTMTNMDPVDTATYYCARLTGTRYFDYWGQGTTVTVSS
VL: DVQMTQSPSSLSASVGDRVTITCKASQDINKFIAWYQQKPGKAPKLLIHYTSTLQPGIPSRFSGSGSGRDYTFTISSLQPEDIATYYCLQYGNLWTFGGGTKVEIK
notes: also called Benchmark OPI
